Protein stability index data for 29 sequences are collected here from the supplement of paper PMC10567573.

The nature of the data set: protein stability index of a GFP-peptide fusion (GPS, HEK-293T) (PSI 1-6); higher = more stable. The note with it: c terminus: a fixed tail appended.

± gives the standard deviation.
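Note: 24-mer peptide tiles fused after GFP, lentivirally expressed, FACS-sorted into six equal bins by GFP/DsRed ratio, decoded by Illumina sequencing, PSI is the read-weighted mean bin number.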

KGAAAAAAASGAAGGGGGGAGAGA [INTS3] showed a protein stability index (treatment: DMSO) of 5.26 ± 0.42 and a protein stability index (treatment: MLN4924 1 uM, 8 h) of 5.3 ± 0.27. Consider KGALQKKPLYVAFSFMYILVGLTV [KCNK9], for which the protein stability index runs as follows: (treatment: DMSO) 3.46 ± 0.47; (treatment: MLN4924 1 uM, 8 h) 2.85 ± 0.51. KGAPASWWNHMHFQHHAKPNCFRK [FADS1]: the protein stability index is, setting by setting: (treatment: DMSO) 2.87 ± 0.18; (treatment: MLN4924 1 uM, 8 h) 3.01 ± 0.43. The matching figures for KGGNLRDKLDGNELDLSLSDLNEV [LRRC59]: 4.86 ± 0.075 and 5.11 ± 0.17.

With KGKDNKHPMYRRLVHSAVDVPTIQ [ZMYND11], the protein stability index by setting is: (treatment: DMSO) 3.71 ± 0.18; (treatment: MLN4924 1 uM, 8 h) 3.71 ± 0.28. The matching figures for KHSNKKVMRTKSSEKAANDDHSVR [CPXM2]: 5.13 ± 0.29 and 5.2 ± 0.22. For KIDYCASSNHGCQHECVNTDDSYS [MATN2], the protein stability index came out at 4.37 ± 0.18 (treatment: DMSO) and 4.5 ± 0.18 (treatment: MLN4924 1 uM, 8 h). The matching figures for KKKPGTAMCVGCGSQIHDQFILRV [ISL2]: 2.36 ± 0.37 and 2.23 ± 0.29. Turning to KKLRFHPKQLYFSARQGELQKVLL [EHMT1], the protein stability index is, setting by setting: (treatment: DMSO) 3.28 ± 0.71; (treatment: MLN4924 1 uM, 8 h) 2.63 ± 0.45.

KLEPIKSRAPQLHLEYRFYKQLGS [CSNK1G1] gave a protein stability index (treatment: DMSO) of 2.06 ± 0.76 and a protein stability index (treatment: MLN4924 1 uM, 8 h) of 2.27 ± 0.21. The matching figures for KLFDVPSLNGVYPRMNEVYTRLGE [CEP70]: 2.65 ± 0.17 and 2.53 ± 0.34.

KLKLVALHKQVLMGPYNPDTCPEV [ACBD3]: the protein stability index (treatment: DMSO) turned out to be 2.38 ± 0.28 and the protein stability index (treatment: MLN4924 1 uM, 8 h) was 2.72 ± 0.32. Sequence KLNLPDYHKIIKNPMDMGTIKKRL [BRD3] returned a protein stability index (treatment: DMSO) of 2.41 ± 0.17 and a protein stability index (treatment: MLN4924 1 uM, 8 h) of 2.48 ± 0.42. As to KMGGKDFSFRYQQELEEEIKELYE [ATL3], the protein stability index was found to be 2.52 ± 0.51 (treatment: DMSO) and 2.87 ± 0.32 (treatment: MLN4924 1 uM, 8 h).

With KMNFSTLRNIQGLFAPLKLQMEFK [POMP], the protein stability index is 2.2 ± 0.36 (treatment: DMSO) and 2.02 ± 0.098 (treatment: MLN4924 1 uM, 8 h). With KNGLPSPERSYVFNGDFVDRGKDS [PPEF2], the protein stability index runs as follows: (treatment: DMSO) 4.7 ± 0.079; (treatment: MLN4924 1 uM, 8 h) 4.76 ± 0.18.

In the case of KNRYANVIAYDHSRVLLSAIEGIP [PTPRD], the protein stability index worked out at 2.27 ± 0.82 (treatment: DMSO) and 2.26 ± 0.4 (treatment: MLN4924 1 uM, 8 h).

For KPVDIWACGVILYILLVGYPPFWD [CAMK2B], the protein stability index stood at 3.27 ± 0.31 (treatment: DMSO) and 3.03 ± 0.17 (treatment: MLN4924 1 uM, 8 h).

Turning to KPVGRQACDLQPCPTEPPDDSCQD [ADAMTSL2], the protein stability index turned out to be 5.46 ± 0.34 (treatment: DMSO) and 5.76 ± 0.075 (treatment: MLN4924 1 uM, 8 h). With KPYACDECAKAFSRSAILIQHRRT [ZNF396], the protein stability index by setting is: (treatment: DMSO) 2.12 ± 0.11; (treatment: MLN4924 1 uM, 8 h) 2.37 ± 0.19. The matching figures for KRRQLEDERRQLQHLKSKALRERW [PALM]: 3.93 ± 0.3 and 4.22 ± 0.57. On to KSFSMANGMNAVMMHGRSYSLASG [RAB40C], for which the protein stability index is, setting by setting: (treatment: DMSO) 3.08 ± 0.26; (treatment: MLN4924 1 uM, 8 h) 3.03 ± 0.098.

As to KSNFRVQLFEDPTVDKEVEIRKKV [MNAT1], the protein stability index was found to be 4.65 ± 0.33 (treatment: DMSO) and 4.69 ± 0.38 (treatment: MLN4924 1 uM, 8 h). In turn, KSQIMSLSHSPQEDWVLLGMANGQ [TLE6] gave a protein stability index (treatment: DMSO) of 3.15 ± 0.2 and a protein stability index (treatment: MLN4924 1 uM, 8 h) of 3.12 ± 0.17. For the sequence KSRLVQLPPVAVRSLQDLARIAIR [PCMTD2], the protein stability index worked out at 3.52 ± 0.19 (treatment: DMSO) and 3.7 ± 0.073 (treatment: MLN4924 1 uM, 8 h).

In the case of KSSGKHYGQFTCEGCKSFFKRSVR [NR2F2], the protein stability index is 2.37 ± 0.18 (treatment: DMSO) and 2.68 ± 0.41 (treatment: MLN4924 1 uM, 8 h). KSTSIQVIVKEGGLKLIQIQDNGT [MLH1] yielded a protein stability index (treatment: DMSO) of 2.18 ± 0.53 and a protein stability index (treatment: MLN4924 1 uM, 8 h) of 2.54 ± 0.56. Turning to KTIKRPFGVKYNPYTRSIQILKDT [TPH1], the protein stability index by setting is: (treatment: DMSO) 2.35 ± 0.2; (treatment: MLN4924 1 uM, 8 h) 2.19 ± 0.22. The sequence KVKKSGSRVMFLLVDKETDKRHVE [PDZK1] yielded a protein stability index (treatment: MLN4924 1 uM, 8 h) of 3.4 ± 0.19.
